Experiments:
[1] = biological target: Src^CD WT (catalytic domain of Src, residues 261-536) (human, UniProt P12931 261-536); test: pull-down
[2] = biological target: Src^FL WT (full-length Src, residues 1-536, non-phosphorylated, lacking an N-terminal myristoyl group) (human, UniProt P12931 1-536); test: pull-down

MGSNKSKPKDASQRRRSLLPETG (domain or fragment, human) [SH4^SNAP WT (residues 1-18 of Src fused to the N-terminus of SNAP-tag through a LPETG linker)]
binding result [1]: binds | binding result [2]: binds

Source: article PMC6474823 (Molecular cell, 2019)
